Test results from patent US20100040606A1 (SYMPHOGEN A S, published 2010).
Residue numbers refer to the chain shown, from its start.

T1: recombinant human fractalkine (CX3CL1; R&D systems) (human, UniProt P78423 25-100)
T1 sequence (looked up): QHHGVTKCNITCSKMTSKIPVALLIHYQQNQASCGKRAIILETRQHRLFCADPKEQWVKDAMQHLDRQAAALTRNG

T2: soluble recombinant G protein (amino acids 66-292 of the 18537 strain sequence) (RSV strain 18537 (subtype B), UniProt P20896 66-292)
T2 construct: also called G(B); recombinant protein G
T2 sequence: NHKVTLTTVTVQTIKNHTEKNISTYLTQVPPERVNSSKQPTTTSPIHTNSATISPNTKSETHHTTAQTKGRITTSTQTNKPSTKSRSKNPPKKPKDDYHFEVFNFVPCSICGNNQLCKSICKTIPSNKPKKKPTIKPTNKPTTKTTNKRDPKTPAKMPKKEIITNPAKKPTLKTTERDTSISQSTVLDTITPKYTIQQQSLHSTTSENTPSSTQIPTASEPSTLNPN

B1: antibody from clone 853 (antibody, human IgG1, kappa, V domains shown)
VH: EVQLVQSGAEVKKPGQSLKISCKTSGYIFTNYWIGWVRQRPGKGLEWMGVIFPADSDARYSPSFQGQVTISADKSIGTAYLQWSSLKASDTAIYYCARPKYYFDSSGQFSEMYYFDFWGQGTLVTVSS
VL: EIVLTQSPGTLSLSPGERATLSCRASQSVSSNYLAWYQQKPGQAPRLLIYGASSRAAGMPDRFSGSGSGTDFTLTISRLEPEDFAVYYCQQYGNSPLTFGGGTEVEIKR
B2: Fab fragment of antibody from clone 853 (Fab, V domains shown)
VH: B1 VH
VL: B1 VL
notes: also called Fab clone 853; 853 (G)
B3: antibody from clone 856 (antibody, human IgG1, kappa, V domains shown)
VH: QVQLVQSGAEVKKPGASVKVSCKASGYTFSNYGFSWVRQAPGRGLEWMGWISAYNGNTYYAQNLQGRVTMTTDTSTTTAYMVLRSLRSDDTAMYYCARDGNTAGVDMWSRDGFDIWGQGTMVTVSS
VL: DIVMTQTPLSLPVTPGEPASISCRSSQSLLDSNDGNTYLDWYLQKPGQSPQLLIYTFSYRASGVPDRFSGSGSGTDFTLKISRVEAEDVGVYYCMQRIEFPYTFGQGTKLEIKR
B4: Fab fragment of antibody from clone 811 (Fab, V domains shown)
VH: QVQLVQSGAVVETPGASVKVSCKASGYIFGNYYIHWVRQAPGQGLEWMAVINPNGGSTTSAQKFQDRITVTRDTSTTTVYLEVDNLRSEDTATYYCARQRSVTGGFDAWLLIPDASNTWGQGTMVTVSS
VL: DIVMTQSPDSLAVSLGERATINCRSSETVLYTSKNQSYLAWYQQKARQPPKLLLYWASTRESGVPARFSGSGSGTDFTLAISSLQAEDVAVYYCQQFFRSPFTFGPGTRLEIKR
notes: also called Fab clone 811; 811 (G)
B5: antibody from clone 888 (antibody, human IgG1, kappa, V domains shown)
VH: QLQLQESGPGLVKPSETLSLTCTASGGSINSSNFYWGWIRQPPGKGLEWIGSIFYSGTTYYNPSLKSRVTISVDTSKNQFSLKLSPVTAADTAVYHCARHGFRYCNNGVCSINLDAFDIWGQGTMVTVSS
VL: DIVMTQSPLSLPVTPGAPASISCRSSQSLLRTNGYNYLDWYLQKPGQSPQLLIYLGSIRASGVPDRFSGSGSGTDFTLKISRVEAEDVGVYYCMQSLQTSITFGQGTRLEIKR
B6: antibody from clone 841 (antibody, human IgG1, kappa, V domains shown)
VH: QVQLVQSGAEVKKPGASVKVSCKASGYTFISFGISWVRQAPGQGLEWMGWISAYNGNTDYAQRLQDRVTMTRDTATSTAYLELRSLKSDDTAVYYCTRDESMLRGVTEGFGPIDYWGQGTLVTVSS
VL: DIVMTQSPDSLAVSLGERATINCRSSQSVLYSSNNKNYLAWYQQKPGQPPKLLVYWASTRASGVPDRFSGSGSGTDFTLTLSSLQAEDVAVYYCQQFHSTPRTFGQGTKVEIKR
B7: antibody from clone 855 (antibody, human IgG1, kappa, V domains shown)
VH: QVQLVQSGPEVKKPGASVKVSCKASGYVLTNYAFSWVRQAPGQGLEWLGWISGSNGNTYYAEKFQGRVTMTTDTSTSTAYMELRSLRSDDTAVYFCARDLLRSTYFDYWGQGTLVTVSS
VL: DIQMTQSPSSVSASVGDRVTITCRASQAISNWLAWYQQKPGKAPKLLIYAASSLQSGVPSRFSGSGSGTDFTLTISGLQPEDFATYYCQQADTFPFTFGPGTKVDIKR
B8: antibody from clone 835 (antibody, human IgG1, kappa, V domains shown)
VH: QVQLVQSGAEVKRPGASVKVSCKASGYTFISYGFSWVRQAPGQGLEWMGWSSVYNGDTNYAQKFHGRVNMTTDTSTNTAYMELRGLRSDDTAVYFCARDRNVVLLPAAPFGGMDVWGQGTMVTVSS
VL: DIQLTQSPSFLSASLEDRVTITCRASQGISSYLAWYQQKPGKAPKLLLDAASTLQSGVPSRFSGSGSGTEFTLTISSLQPEDFATYYCQQLNSYPRTFGQGTKVDIKR
B9: Fab fragment of antibody from clone 816 (Fab, V domains shown)
VH: EVQLLESGGGLVQPGGSLRLSCVASGFTFSTYAMTWVRQAPGKGLEWVSVIRASGDSEIYADSVRGRFTISRDNSKNTVFLQMDSLRVEDTAVYFCANIGQRRYCSGDHCYGHFDYWGQGTLVTVSS
VL: DIVMTQSPLSLPVTPGEPASISCRSSQSLLHSDGRYYVDWYLQKPGQSPHLLIYLASNRASGVPDRFTGSGSGTDFTLKISRVEAEDVGVYYCMQGLHTPWTFGQGTKVDIKR
B10: antibody from clone 816 (antibody, human IgG1, kappa, V domains shown)
VH: B9 VH
VL: B9 VL
B11: Fab fragment of antibody from clone 796 (Fab, V domains shown)
VH: QVQLVESGGGVVQPGRSLRLSCAASGFSFSHFGMHWVRQVPGKGLEWVAIISYDGNNVHYADSVKGRFTISRDNSKNTLFLQMNSLRDDDTGVYYCAKDDVATDLAAYYYFDVWGRGTLVTVSS
VL: DIVMTQTPLSLSVTPGQPASISCRSSQSLLRSDGKTFLYWYLQKPGQSPQPLMYEVSSRFSGVPDRFSGSGSGADFTLNISRVETEDVGIYYCMQGLKIRRTFGPGTKVEIKR
notes: also called Fab clone 796; 796 (G)
B12: Palivizumab (antibody, V domains shown)
VH: QVTLRESGPALVKPTQTLTLTCTFSGFSLSTSGMSVGWIRQPPGKALEWLADIWWDDKKDYNPSLKSRLTISKDTSKNQVVLKVTNMDPADTATYYCARSMITNWYFDVWGAGTTVTVSS
VL: DIQMTQSPSTLSASVGDRVTITCKCQLSVGYMHWYQQKPGKAPKLLIYDTSKLASGVPSRFSGSGSGTEFTLTISSLQPDDFATYYCFQGSGYPFTFGGGTKLEIK
B13: Fab fragment of antibody from clone 838 (Fab, V domains shown)
VH: QVQLVESGGGVVQPGTSLRLSCAASGFTFSTFGMHWVRQAPGKGLEWVAVISYDGNKKYYADSVKGRFTISRDNSKNTLYLQVNSLRVEDTAVYYCAAQTPYFNESSGLVPDWGQGTLVTVSS
VL: DIQMTQSPSSLSASVGDRVSITCRASQGISNYLAWYQQKPGKVPKLLIYAASTLQSGVPSRFSGSGSGTDFTLTISSLQPEDVATYYCQKYNSAPQTFGQGTKVEIKR
notes: also called Fab clone 838; 838 (G)
B14: Fab fragment of antibody from clone 859 (Fab, V domains shown)
VH: QVQLVESGGGVVQPGRSLRLSCAVSGSSFSKYGIHWVRQAPGKGLEWVAVISYDGSKKYFTDSVKGRFTIARDNSQNTVFLQMNSLRAEDTAVYYCATGGGVNVTSWSDVEHSSSLGYWGLGTLVTVSS
VL: B13 VL with S20T, S30R, I48V, Y49F, K90R, Q96L, Q100G
notes: also called Fab clone 859; 859 (G)
B15: antibody from clone 793 (antibody, human IgG1, kappa, V domains shown)
VH: QVQLVESGGGLVKPGGSLRLSCAASGFPFGDYYMSWIRQAPGKGLEWVAYINRGGTTIYYADSVKGRFTISRDNAKNSLFLQMNSLRAGDTALYYCARGLILALPTATVELGAFDIWGQGTMVTVSS
VL: DIQMTQSPSSLSASVGDRVTITCRASQSITGYLNWYQQKPGKAPKLLIYATSTLQSEVPSRFSGSGSGTDFTLTISSLQPEDFATYYCQQSYNTLTFGGGTKVEIKR

Legend:
[1] = target: RSV G protein (receptor-binding glycoprotein) (human respiratory syncytial virus, …); experiment: cell-based or functional assay
[2] = target: T1, recombinant human fractalkine (CX3CL1; …); experiment: ELISA
[3] = target: T2, soluble recombinant G protein (amino …); experiment: SPR (Biacore 3000), Fab over immobilised recombinant antigen;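 further: antigen immobilised on CM5 chip at very low density (about 50 RU), rate constants fitted globally with a 1:1 Langmuir model, Fabs obtained by enzymatic cleavage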
[4] = target: RSV protein F (fusion glycoprotein), recombinant or purified (human respiratory syncytial virus, …, UniProt P03420 26-109; P03420 137-524); experiment: cell-based or functional assay
Chain of RSV protein F (fusion glycoprotein), recombinant or purified (P03420 26-109, chain 1 of 2): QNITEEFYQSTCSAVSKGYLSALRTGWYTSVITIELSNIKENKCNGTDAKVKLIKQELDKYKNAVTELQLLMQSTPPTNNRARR
Chain of RSV protein F (fusion glycoprotein), recombinant or purified (P03420 137-524, chain 2 of 2): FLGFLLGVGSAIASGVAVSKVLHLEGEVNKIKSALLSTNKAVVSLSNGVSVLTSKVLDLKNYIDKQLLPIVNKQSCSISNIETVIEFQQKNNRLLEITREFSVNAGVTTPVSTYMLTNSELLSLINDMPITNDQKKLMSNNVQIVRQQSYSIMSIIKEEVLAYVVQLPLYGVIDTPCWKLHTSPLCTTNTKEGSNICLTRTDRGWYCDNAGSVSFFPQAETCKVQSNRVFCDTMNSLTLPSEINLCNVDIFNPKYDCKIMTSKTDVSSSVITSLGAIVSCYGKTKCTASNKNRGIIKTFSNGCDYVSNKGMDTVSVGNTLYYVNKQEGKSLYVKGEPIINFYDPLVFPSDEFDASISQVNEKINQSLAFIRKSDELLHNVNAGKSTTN

Binder	EC50, PRNT with complement, RSV subtype A [1]	binding result [2]	Kd [3]	koff [3]	kon [3]	t1/2 [3]	EC50, PRNT with complement, RSV subtype A [4]
B1	1.49 µg/mL	no binding	–	–	–	–	–
B2	–	–	790 pM	0.0014 s⁻¹	1.77e+06 M⁻¹ s⁻¹	0.138 h	–
B3	–	no binding	–	–	–	–	–
B4	–	–	340 pM	0.000171 s⁻¹	498000 M⁻¹ s⁻¹	1.13 h	–
B5	0.14 µg/mL	no binding	–	–	–	–	–
B6	–	no binding	–	–	–	–	–
B7	6.35 µg/mL	no binding	–	–	–	–	–
B8	–	no binding	–	–	–	–	–
B9	–	–	90 pM	0.000178 s⁻¹	2.02e+06 M⁻¹ s⁻¹	1.08 h	–
B10	–	no binding	–	–	–	–	–
B11	–	–	480 pM	0.000403 s⁻¹	833000 M⁻¹ s⁻¹	0.478 h	–
B12	–	–	–	–	–	–	0.14 µg/mL
B13	–	–	190 pM	5.06e-05 s⁻¹	264000 M⁻¹ s⁻¹	3.83 h	–
B14	–	–	120 pM	4.63e-05 s⁻¹	380000 M⁻¹ s⁻¹	4.17 h	–
B15	2.52 µg/mL	no binding	–	–	–	–	–
